Substitutions are numbered along the chain they refer to. Like-named read-outs stand apart in the source and are kept apart here. Values belong to the binder of their own block, whether it stands above or below them.
Legend:
Y199H = biological target: T1, Y199H; assay: yeast display, single point with Y199H Aurora A, mean fluorescence
T1 construct: also called Y199H mutant Aurora A; Y199H Aurora A hotspot mutant
T1 chain: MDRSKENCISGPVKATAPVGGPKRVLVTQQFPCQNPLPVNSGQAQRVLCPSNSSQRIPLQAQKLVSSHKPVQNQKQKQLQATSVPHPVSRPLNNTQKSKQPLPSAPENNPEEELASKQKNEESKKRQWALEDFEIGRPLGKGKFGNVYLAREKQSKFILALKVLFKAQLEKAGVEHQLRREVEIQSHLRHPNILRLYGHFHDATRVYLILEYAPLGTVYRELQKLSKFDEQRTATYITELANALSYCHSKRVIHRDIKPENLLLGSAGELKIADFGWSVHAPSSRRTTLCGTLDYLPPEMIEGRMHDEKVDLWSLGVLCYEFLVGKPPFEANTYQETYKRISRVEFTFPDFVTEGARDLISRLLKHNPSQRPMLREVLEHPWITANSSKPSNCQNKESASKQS

Aurora A kinase [1] = biological target: T2, Aurora A kinase (human, UniProt O14965 122-403, limits assumed); assay: isothermal titration calorimetry with dephosphorylated Aurora A (deP AurA)
T2 construct: also called AurA; deP AurA
T2 sequence: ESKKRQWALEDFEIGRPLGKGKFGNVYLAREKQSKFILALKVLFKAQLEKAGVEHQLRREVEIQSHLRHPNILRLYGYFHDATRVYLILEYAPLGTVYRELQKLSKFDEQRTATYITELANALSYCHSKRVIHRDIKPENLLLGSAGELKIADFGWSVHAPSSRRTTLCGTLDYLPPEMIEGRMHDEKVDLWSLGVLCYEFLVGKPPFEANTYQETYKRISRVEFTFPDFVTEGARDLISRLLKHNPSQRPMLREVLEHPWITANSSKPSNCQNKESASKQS

Aurora A kinase [2] = biological target: T2, Aurora A kinase; assay: yeast display titration of the clone with wild type Aurora A, mean fluorescence
Aurora A kinase [3] = biological target: T2, Aurora A kinase; assay: isothermal titration calorimetry with dephosphorylated Aurora A (deP AurA); remark: listed apart in the source
Aurora A kinase [4] = biological target: T2, Aurora A kinase; assay: method not stated; told in the isothermal titration calorimetry paragraph
Y199K = biological target: T3, Y199K; assay: yeast display, single point with Y199K Aurora A, mean fluorescence
T3 construct: also called Y199K mutant Aurora A; Y199K Aurora A hotspot mutant
T3 chain: T1 chain with H199K

Aurora A kinase [5] = biological target: T2, Aurora A kinase; assay: isothermal titration calorimetry with dephosphorylated Aurora A (deP AurA); remark: listed apart in the source
Aurora A kinase [6] = biological target: T2, Aurora A kinase; assay: as above; set-up: dS: unit not given here
Aurora A kinase [7] = biological target: T2, Aurora A kinase; assay: as above; remark: listed apart in the source
Aurora A kinase [8] = biological target: T2, Aurora A kinase; assay: isothermal titration calorimetry; Mb60 alone, not the sGFP fusion (FIG. 6C)
Aurora A kinase [9] = biological target: T2, Aurora A kinase; assay: isothermal titration calorimetry with dephosphorylated Aurora A (deP AurA); set-up: dS: unit not given here; remark: listed apart in the source
Aurora A kinase [10] = biological target: T2, Aurora A kinase; assay: isothermal titration calorimetry

- Kd (Aurora A kinase [1]): 8.7 nM
- dH (Aurora A kinase [1]): -67.4 kJ/mol
- dS (Aurora A kinase [1]): -71.6 J/mol*K
- n (Aurora A kinase [1]): 1.02
- Kd (Aurora A kinase [2]): 16.7 nM
B1: monobody Mb2 (designed binder)
chain: SVSSVPTKLEVVAATPTSLLISWDAFGHQYEPVYYYRITYGETGGNSPVQEFTVPGYYSTATISGLKPGVDYTITVYAWYVDGSYSSPISINYRT
notes: Monobody on a fibronectin type III (FN3) scaffold; also called AuroraA_2
- binding result (Y199H): no binding (tested: 2000 (axis unit not printed))

- Kd (Aurora A kinase [3]): 175 µM
- dH (Aurora A kinase [3]): -101 kJ/mol
- dS (Aurora A kinase [3]): -210 J/mol*K
- n (Aurora A kinase [3]): 0.92
- Kd (Aurora A kinase [2]): 81 nM
B2: monobody Mb54 (designed binder)
chain: SVSSVPTKLEVVAATPTSLLISWDAQTYQMYDYVSYYRITYGETGGNSPVQEFTVPGYYSTATISGLKPGVDYTITVYAEGYYSSYSPISINYRT
notes: Monobody on a fibronectin type III (FN3) scaffold; also called AuroraA_54
- binding result (Y199H): no binding (tested: 2000 (axis unit not printed))

- Kd (Aurora A kinase [4]): 50 µM
B3: TPX2 (other)
chain: MSQVKSSYSYDAPSDFINFSSLDDEGDTQNIDSWFEEKANLENKL
notes: also called TPX2 polypeptide

- Kd (Aurora A kinase [5]): 27.4 nM
- dH (Aurora A kinase [5]): -38.1 kJ/mol
- dS (Aurora A kinase [5]): -16.9 J/mol*K
- n (Aurora A kinase [5]): 0.93
- Kd (Aurora A kinase [2]): 6 nM
B4: monobody Mb51 (designed binder)
chain: SVSSVPTKLEVVAATPTSLLISWDAKPMSYEPVYYYRITYGETGGNSPVQEFTVPGYYSTATISGLKPGVDYTITVYADSMSSYYYSPISINYRT
notes: Monobody on a fibronectin type III (FN3) scaffold; also called AuroraA_51
- binding result (Y199K): no binding (tested: 2000 (axis unit not printed))

- Kd (Aurora A kinase [6]): 163 nM
- dH (Aurora A kinase [6]): -42.4 kJ/mol
- dS (Aurora A kinase [6]): -29.1
- n (Aurora A kinase [6]): 0.94
- Kd (Aurora A kinase [2]): 60 nM
B5: monobody Mb56 (designed binder)
chain: SVSSVPTKLEVVAATPTSLLISWDAMSDWYYWVDYYRITYGETGGNSPVQEFTVPGSYSTATISGLKPGVDYTITVYASDDVWGDYSPISINYRT
notes: Monobody on a fibronectin type III (FN3) scaffold; also called AuroraA_56
- binding result (Y199K): no binding (tested: 2000 (axis unit not printed))

- Kd (Aurora A kinase [7]): 2600 nM
- dH (Aurora A kinase [7]): -57.2 kJ/mol
- dS (Aurora A kinase [7]): -84.9 J/mol*K
- n (Aurora A kinase [7]): 1.06
- Kd (Aurora A kinase [2]): 42 nM
B6: monobody Mb44 (designed binder)
chain: SVSSVPTKLEVVAATPTSLLISWDAPAVTVDFYVITYGETGGYSYPWQEFEVPGSKSTATISGLKPGVDYTITVYADYGQYFYSPISINYRT
notes: Monobody on a fibronectin type III (FN3) scaffold; also called AuroraA_44

- Kd (Aurora A kinase [8]): ~1000 nM
- Kd (Aurora A kinase [9]): 1200 nM
- dH (Aurora A kinase [9]): -134 kJ/mol
- dS (Aurora A kinase [9]): -334
- n (Aurora A kinase [9]): 0.92
- Kd (Aurora A kinase [2]): 25 nM
B7: monobody Mb60 (designed binder)
chain: SVSSVPTKLEVVAATPTSLLISWDAPAVTVVHYVITYGETGGNSPVQEFTVPGSKSTATISGLKPGVDYTITVYAIDFYWGSYSPISINYRT
notes: Monobody on a fibronectin type III (FN3) scaffold; also called AuroraA_60
- binding result (Y199K): no binding (tested: 2000 (axis unit not printed))

- Kd (Aurora A kinase [10]): ~9.9 µM
B8: monobody Mb60 fused to supercharged GFP (designed binder)
chain: B7 chain
notes: also called sGFP-Mb60; not shown: supercharged green fluorescent protein
